The test deals with T1, GST-galectin-3 (human, UniProt P08515 1-218 = GST).
T1 construct: Full-length galectin-3 in pGEX4T1; also called GST-galectin-3 fusion protein; GST fusion with full-length galectin-3
The test can be described thus: GST-galectin-3 pull-down from BT549 lysates, anti-MUC1-C immunoblot. The method, then:
Immunoblotting and precipitates. Lysates were prepared from subconfluent cells as described (Li et al., 2001).

T1 sequence (P08515 1-218, tags or fused parts left off): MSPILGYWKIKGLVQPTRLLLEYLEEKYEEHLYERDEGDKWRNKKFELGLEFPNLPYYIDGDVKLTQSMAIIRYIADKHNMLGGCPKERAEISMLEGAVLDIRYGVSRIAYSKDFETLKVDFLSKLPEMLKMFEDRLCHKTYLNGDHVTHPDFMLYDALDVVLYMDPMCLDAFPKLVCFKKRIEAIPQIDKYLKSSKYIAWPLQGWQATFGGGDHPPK

B1: MUC1-C(N36A) (receptor)
chain: SVVVQLTLAFREGTINVHDVETQFNQYKTEAASRYALTISDVSVSDVPFPFSAQSGAGVPGWGIALLVLVCVLVALAIVYLIALAVCQCRRKNYGQLDIFPARDTYHPMSEYPTYHTHGRYVPPSSTDRSPYEKVSAGNGGSSLSYTNPAVAATSANL
notes: Stably expressed in BT549 cells and tested in lysates; lacks the glycosylated 25-20 kDa species; also called MUC1-C with a N36A mutation
For B1, the binding result is reported as “no binding”.

Source of the values: patent US20100098683A1 (Dana-Farber, published 2010).
